Measurements published in US20110039770A1, “INHIBITORS OF PROTEIN KINASE C ISOFORMS AND USES THEREOF” (PHARMAGAP INC., priority 2005, published 2011).
Where a SMILES comes first, the peptide text is derived from it. [ ]: non-standard residue; d: D form.

Key:
[1] = target: PKC-βI (Homo sapiens, UniProt P05771); assay: Competitive binding assay using cell extracts (Western blot); parameters: PKC-βII by PRE 3 and PRE 4 in IMR-32 Neuroblastoma; endogenous in cells; host or cells: IMR-32 human neuroblastoma cells; key: —: no detectable affinity; Low to very low affinity at 10X or 20X or both PRE concentrations in at least one cell line in the cell extract assay; Low affinity in purified isoform assay.; Moderate affinity at 10X or 20X or both PRE concentrations in at least one cell line in the cell extract assay.; High affinity at 10X or 20X or both PRE concentrations in at least one cell line in the cell extract assay; High affinity in purified isoform assay; conditions: Cell extract; PRE 10X or 20X antibody concentration
Chain of PKC-βI (P05771 whole entry, canonical isoform): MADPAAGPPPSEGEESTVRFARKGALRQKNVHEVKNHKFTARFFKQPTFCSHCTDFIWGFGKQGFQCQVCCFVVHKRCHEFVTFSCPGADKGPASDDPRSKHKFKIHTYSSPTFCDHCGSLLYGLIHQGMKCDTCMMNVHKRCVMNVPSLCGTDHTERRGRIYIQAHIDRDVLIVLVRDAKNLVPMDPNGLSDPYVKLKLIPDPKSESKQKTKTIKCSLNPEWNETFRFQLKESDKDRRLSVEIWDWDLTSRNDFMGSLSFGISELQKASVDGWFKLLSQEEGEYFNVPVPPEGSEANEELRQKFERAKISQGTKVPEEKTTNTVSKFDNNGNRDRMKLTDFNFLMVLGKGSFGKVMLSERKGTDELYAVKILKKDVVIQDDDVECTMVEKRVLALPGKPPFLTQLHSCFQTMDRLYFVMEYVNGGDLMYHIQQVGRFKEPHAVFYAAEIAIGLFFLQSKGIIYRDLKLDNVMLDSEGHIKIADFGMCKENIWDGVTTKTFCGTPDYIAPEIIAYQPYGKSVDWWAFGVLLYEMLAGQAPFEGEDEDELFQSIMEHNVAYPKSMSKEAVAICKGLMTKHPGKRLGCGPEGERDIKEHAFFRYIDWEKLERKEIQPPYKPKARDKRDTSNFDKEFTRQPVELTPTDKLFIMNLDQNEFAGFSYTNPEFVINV

[2] = target: T1, PKC-α (Homo sapiens, UniProt P17252); assay: ELISA-based competitive binding assay with purified PKC isoform; parameters: key to Affinity for PKC isoform α: —: no detectable affinity; Low to very low affinity at 10X or 20X or both PRE concentrations in at least one cell line in the cell extract assay; Low affinity in purified isoform assay.; Moderate affinity at 10X or 20X or both PRE concentrations in at least one cell line in the cell extract assay.; High affinity at 10X or 20X or both PRE concentrations in at least one cell line in the cell extract assay; High affinity in purified isoform assay; conditions: for Affinity for PKC isoform α: Purified isoform
Method: (§1) Peptides PRE 1, 2, 3, 4, 5, 6, 7, 8, 9, 10, 11, 12 and 13 (see Table 3) were tested for their ability to interfere with binding of PKC isoform-specific antibodies to their target PKC isoforms using a competitive binding assay and purified PKC isoforms.
(§2) Procedure: Competitive binding was assessed using a 96 well plate ELISA-based assay as described below.
(§3) Greiner 96 well ELISA plates were coated with the appropriate PKC isoform diluted in PBSN (PBS with Calcium/Magnesium+0.05% Sodium azide w/w). 50 μL/well at 250 ng/mL was used. Control wells contained PBSN only. Plates were incubated overnight at 4° C.
(§4) The plates were washed 3 times with 200 μL of dH2O per well, then 100 μL of blocking solution was added per well and the plate incubated for 1 h at 37° C. The washing steps with dH2O were repeated and 50 μL of the appropriate PRE solution (PRE stock solution [20 mM in DMSO] diluted in PBSN) was added and the plate incubated for 1 h at room temperature.
(§5) After incubation, 5 μL of 1.1:400 anti-PKC (isoform specific antibody) was added per well (to provide a final concentration of 1:4000). For PKC-epsilon, 1.1:800 dilution was used and for PKC-zeta a 1.1:100 dilution was used due to high and low binding affinity, respectively. The plates were then incubated 1 h at room temperature, followed by washing with dH2O as described above.
(§6) 50 μL of 1:1000 dilution of Alkaline Phosphatase (AP) conjugated antibody (anti-rabbit for all except zeta, which was anti-goat) was then added and the plate incubated for 1 h at room temperature. Washing with dH2O was then repeated. Finally, 100 μL of pNPP solution in pNPP buffer (2 mM MgCl2, 100 mM Sodium bicarbonate in water, pH 9.8) was added to all wells and incubated for 8 minutes for α, βI, βII ε, and ζ, or for 15-20 mins for δ (until sufficient coloration is observed). The reaction was stopped by addition of Stop solution (2N NaOH) and the absorbance at 405 nm was read on a Galaxy Plate reader.
(§7) Controls were PKC without PRE; blank controls, and controls containing the final concentrations of DMSO used for solubilizing the PREs. The non-specific binding capacity related to DMSO was also measured.
(§8) The antibodies used were as follows: anti-PKC α (Cat. No. SC-208); anti-PKC βI (Cat. No. SC-209); anti-PKC βII (Cat. No. SC-210); anti-PKC δ (Cat. No. SC-213); anti-PKC ε (Cat. No. SC-214); anti-PKC ζ (Cat. No. SC-216-G) (all from Santa Cruz Biotechnology, Inc.). The AP-conjugated antibodies were obtained from Jackson Immuno Research Laboratories (West Grove, Pa.).
(§9) Calculations: The OD values measured at 405 nm represent the free PKC coated per well.
(§10) OD405 PKC alone−Blank OD405 of each sample=OD405 coated isoform
(§11) (OD405 of sample X/OD405 coated isoform)×100=% n that represents the percentage of X binding compared to control.
(§12) 100-% n measures the relative binding capacity of X towards the tested isoform.
(§13) The apparent binding capacity of the DMSO samples was then subtracted from X binding capacity.
(§14) All measurements were made in triplicate and the values in the table represent the averaged calculated binding capacity values after subtraction of the DMSO apparent binding capacity (averaged from 12 values, respectively 10.80, 11.20 and 16.40 corresponding to the concentrations of DMSO used to dilute the […] at 200, 100 and 50 μM respectively). The results allow for quantitative comparison of the binding capacity of each PRE towards an individual isoform within each table, but not among isoforms due to differences in sensitivity of the specific antibodies toward the secondary antibody. This applies particularly to PKC-delta. As noted above, the colour development duration was increased 2-3 times and, as a result, the OD405 measurements may be overestimated for this isoform.

[3] = target: PKC-βII (Homo sapiens, UniProt P05771); assay: as above; parameters: key to Affinity for PKC isoform βII: —: no detectable affinity; Low to very low affinity at 10X or 20X or both PRE concentrations in at least one cell line in the cell extract assay; Low affinity in purified isoform assay.; Moderate affinity at 10X or 20X or both PRE concentrations in at least one cell line in the cell extract assay.; High affinity at 10X or 20X or both PRE concentrations in at least one cell line in the cell extract assay; High affinity in purified isoform assay; conditions: for Affinity for PKC isoform βII: Purified isoform
Chain of PKC-βII (P05771 1-673 isoform P05771-2): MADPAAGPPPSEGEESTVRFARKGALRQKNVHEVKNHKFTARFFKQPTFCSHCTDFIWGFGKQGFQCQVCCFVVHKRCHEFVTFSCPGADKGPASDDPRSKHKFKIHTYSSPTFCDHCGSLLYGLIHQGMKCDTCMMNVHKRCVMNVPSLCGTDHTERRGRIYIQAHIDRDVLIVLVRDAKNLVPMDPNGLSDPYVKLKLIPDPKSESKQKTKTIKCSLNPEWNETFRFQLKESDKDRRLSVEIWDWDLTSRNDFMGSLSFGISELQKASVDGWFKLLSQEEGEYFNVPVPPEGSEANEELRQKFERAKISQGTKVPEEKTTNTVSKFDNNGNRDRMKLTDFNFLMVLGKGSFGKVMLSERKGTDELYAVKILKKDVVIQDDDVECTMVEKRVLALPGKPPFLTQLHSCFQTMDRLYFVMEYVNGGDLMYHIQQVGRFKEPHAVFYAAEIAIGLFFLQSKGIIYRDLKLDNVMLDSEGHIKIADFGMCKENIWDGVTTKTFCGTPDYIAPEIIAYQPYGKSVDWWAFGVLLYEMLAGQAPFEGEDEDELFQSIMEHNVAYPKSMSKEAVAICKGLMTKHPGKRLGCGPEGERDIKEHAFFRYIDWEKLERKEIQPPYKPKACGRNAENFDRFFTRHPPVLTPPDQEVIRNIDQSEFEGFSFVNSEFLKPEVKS
Method: as §1, §2, §3, §4, §5, §6, §7, §8, §9, §10, §11, §12, §13, §14

[4] = target: T1, PKC-α; assay: Competitive binding assay using cell extracts (Western blot); parameters: endogenous PKC-α in (A) untreated human neuroblastoma (IMR-32) cells; endogenous in cells; host or cells: IMR-32 human neuroblastoma cells; key: —: no detectable affinity; Low to very low affinity at 10X or 20X or both PRE concentrations in at least one cell line in the cell extract assay; Low affinity in purified isoform assay.; Moderate affinity at 10X or 20X or both PRE concentrations in at least one cell line in the cell extract assay.; High affinity at 10X or 20X or both PRE concentrations in at least one cell line in the cell extract assay; High affinity in purified isoform assay; conditions: Cell extract; PRE 10X or 20X antibody concentration
[5] = PRE 50 μM, purified PKC-βII, read-out: calculated binding capacity (100-% n, DMSO apparent binding subtracted)
[6] = PRE 100 μM, purified PKC-βII, read-out: calculated binding capacity (100-% n, DMSO apparent binding subtracted)

| Affinity for PKC isoform βI [1] | Affinity for PKC isoform α [2] | Affinity for PKC isoform βII [3] | Affinity for PKC isoform α [4] | inhibition at 50 µM [3, 5] [%] | inhibition at 100 µM [3, 6] [%] | calculated binding capacity (100-% n, DMSO apparent binding subtracted) ([2]; PRE 100 μM, purified PKC-α) [%] | calculated binding capacity (100-% n, DMSO apparent binding subtracted) ([3]; PRE 50 μM, purified PKC-βII) [%] | calculated binding capacity (100-% n, DMSO apparent binding subtracted) ([3]; PRE 100 μM, purified PKC-βII) [%] | inhibition at 50 µM ([2]; PRE 50 μM, purified PKC-α, read-out: calculated binding capacity (100-% n, DMSO apparent binding subtracted)) [%] | inhibition at 100 µM ([2]; PRE 100 μM, purified PKC-α, read-out: calculated binding capacity (100-% n, DMSO apparent binding subtracted)) [%] | inhibition at 200 µM ([2]; PRE 200 μM, purified PKC-α, read-out: calculated binding capacity (100-% n, DMSO apparent binding subtracted)) [%] | inhibition at 200 µM ([3]; PRE 200 μM, purified PKC-βII, read-out: calculated binding capacity (100-% n, DMSO apparent binding subtracted)) [%] | Compound |
| --- | --- | --- | --- | --- | --- | --- | --- | --- | --- | --- | --- | --- | --- |
| — | — | — | — |  |  |  |  |  |  |  |  |  | Ac-KDAQNLI-NH2 [PRE 12] |
| M | — | L | H/L |  |  |  |  |  |  |  |  |  | Ac-ISIGILNQADK-NH2 [PRE 10] |
| M | — | H | M/L |  |  | 5.35 | 8.14 | 0.3 |  |  |  |  | Ac-isigilqnadk-NH2 (Ac-[dI][dS][dI]G[dI][dL][dQ][dN][dA][dD][dK]-NH2; SMILES CC[C@@H](C)[C@@H](NC(C)=O)C(=O)N[C@H](CO)C(=O)N[C@@H](C(=O)NCC(=O)N[C@@H](C(=O)N[C@H](CC(C)C)C(=O)N[C@H](CCC(N)=O)C(=O)N[C@H](CC(N)=O)C(=O)N[C@H](C)C(=O)N[C@H](CC(=O)O)C(=O)N[C@H](CCCCN)C(N)=O)[C@H](C)CC)[C@H](C)CC) [PRE 9] |
| — | — | — | M/H |  |  |  |  |  |  |  |  |  | Ac-RDAQNLI-NH2 [PRE 13] |
| H | L | — | H/L |  |  |  |  |  |  |  |  |  | Ac-RDAQNLIGISI-NH2 [PRE 11] |

Further lines, the compound ahead of its results:

| Compound | Affinity for PKC isoform βI [1] | Affinity for PKC isoform α [2] | Affinity for PKC isoform βII [3] | Affinity for PKC isoform α [4] | inhibition at 50 µM [3, 5] [%] | inhibition at 100 µM [3, 6] [%] | calculated binding capacity (100-% n, DMSO apparent binding subtracted) ([2]; PRE 100 μM, purified PKC-α) [%] | calculated binding capacity (100-% n, DMSO apparent binding subtracted) ([3]; PRE 50 μM, purified PKC-βII) [%] | calculated binding capacity (100-% n, DMSO apparent binding subtracted) ([3]; PRE 100 μM, purified PKC-βII) [%] | inhibition at 50 µM ([2]; PRE 50 μM, purified PKC-α, read-out: calculated binding capacity (100-% n, DMSO apparent binding subtracted)) [%] | inhibition at 100 µM ([2]; PRE 100 μM, purified PKC-α, read-out: calculated binding capacity (100-% n, DMSO apparent binding subtracted)) [%] | inhibition at 200 µM ([2]; PRE 200 μM, purified PKC-α, read-out: calculated binding capacity (100-% n, DMSO apparent binding subtracted)) [%] | inhibition at 200 µM ([3]; PRE 200 μM, purified PKC-βII, read-out: calculated binding capacity (100-% n, DMSO apparent binding subtracted)) [%] |
| --- | --- | --- | --- | --- | --- | --- | --- | --- | --- | --- | --- | --- | --- |
| CC[C@H](C)[C@H](NC(=O)[C@H](CO)NC(=O)[C@@H](NC(=O)CNC(=O)[C@@H](NC(=O)[C@H](CC(C)C)NC(=O)[C@H](CC(N)=O)NC(=O)[C@H](CCC(N)=O)NC(=O)[C@H](C)NC(=O)[C@H](CC(=O)O)NC(=O)CNC(=O)CNC(=O)[C@H](CCCCN)NC(=O)[C@@H](NC(=O)[C@H](CCC(=O)O)NC(=O)[C@H](CCC(N)=O)NC(=O)[C@@H](NC(=O)CNC(=O)[C@H](CCCCN)NC(=O)[C@H](C)NC(C)=O)[C@@H](C)CC)C(C)C)[C@@H](C)CC)[C@@H](C)CC)C(N)=O [PRE 3] (Ac-AKGIQEVKGGDAQNLIGISI-NH2) | L | H | — | H | 0 | 0 |  |  |  |  |  |  |  |
| Ac-ISIGILQNADK-NH2 (not fully specified; printed as Ac-ISIGILQNADK-NH2) [PRE 7] | — | L | — | L |  |  |  |  |  |  |  |  |  |
| ILEDKGGDAQNLIGISI [PRE 8] |  | — | — | M/L |  |  |  |  |  |  |  |  |  |
| RRKKGGKDFVVKR [PRE 1] | H | — | — | H |  |  |  |  |  |  |  |  |  |
| Ac-KDANQLIGISI-NH2 [PRE 6] | H | — | — | H/L |  |  |  |  |  |  |  |  |  |
| CC[C@H](C)[C@H](NC(=O)[C@H](CO)NC(=O)[C@@H](NC(=O)CNC(=O)[C@@H](NC(=O)[C@H](CC(C)C)NC(=O)[C@H](CC(N)=O)NC(=O)[C@H](CCC(N)=O)NC(=O)[C@H](C)NC(=O)[C@H](CC(=O)O)NC(=O)[C@H](CCCCN)NC(C)=O)[C@@H](C)CC)[C@@H](C)CC)C(N)=O [PRE 4, Ac-KDAQNLIGISI-NH2] (Ac-KDAQNLIGISI-NH2) | H | H | L | H |  |  |  |  |  |  |  |  |  |
| CC[C@H](C)[C@H](NC(=O)[C@H](CO)NC(=O)[C@@H](NC(=O)CNC(=O)[C@@H](NC(=O)[C@H](CC(C)C)NC(=O)[C@H](CC(N)=O)NC(=O)[C@H](CCC(N)=O)NC(=O)[C@H](C)NC(=O)[C@H](CC(=O)O)NC(=O)[C@H](CCCCN)NC(=O)CNC(=O)CNC(=O)[C@H](CCCCN)NC(=O)[C@@H](NC(=O)[C@H](CCC(=O)O)NC(=O)[C@H](CCC(N)=O)NC(=O)[C@@H](NC(=O)CNC(=O)[C@H](CCCCN)NC(=O)[C@H](C)NC(C)=O)[C@@H](C)CC)C(C)C)[C@@H](C)CC)[C@@H](C)CC)C(N)=O [PRE 5] (Ac-AKGIQEVKGGKDAQNLIGISI-NH2) | H | — | — | M | 0 | 0 |  |  |  | 0 | 0 | 0 | 0 |
